Substitutions are numbered along the chain they refer to.

Test [1] deals with T1, human DLL3 endogenously expressed on SCLC tumor cell lines SHP77 and NCI-H82 (human, UniProt Q9NYJ7 27-618).
T1 construct: whole, on cells; also called human DLL3 expressed on tumor cells
T1 sequence (looked up): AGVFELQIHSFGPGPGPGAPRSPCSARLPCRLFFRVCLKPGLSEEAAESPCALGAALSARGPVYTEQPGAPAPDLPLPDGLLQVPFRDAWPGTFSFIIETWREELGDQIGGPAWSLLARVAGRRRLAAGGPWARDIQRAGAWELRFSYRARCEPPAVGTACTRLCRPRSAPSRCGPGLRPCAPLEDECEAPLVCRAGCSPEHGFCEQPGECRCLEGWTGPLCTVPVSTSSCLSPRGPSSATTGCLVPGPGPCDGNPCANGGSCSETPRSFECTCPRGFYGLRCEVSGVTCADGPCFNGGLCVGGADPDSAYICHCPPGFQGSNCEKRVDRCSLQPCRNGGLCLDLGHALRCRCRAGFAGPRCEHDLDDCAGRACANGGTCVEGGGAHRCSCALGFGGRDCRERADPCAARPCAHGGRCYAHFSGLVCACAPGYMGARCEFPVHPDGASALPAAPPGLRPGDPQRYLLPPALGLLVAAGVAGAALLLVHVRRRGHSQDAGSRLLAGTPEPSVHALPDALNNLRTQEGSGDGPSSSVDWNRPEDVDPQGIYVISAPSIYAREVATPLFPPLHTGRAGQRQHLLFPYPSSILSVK
Put plainly: flow cytometry on SHP77 and NCI-H82 cells. Background: A flow cytometer gives signals particle by particle.

Test [2] has as its target T2, ECD of human DLL3 over-expressed on HEK293 cells (human, UniProt Q9NYJ7 27-492).
T2 construct: extracellular domain; also called HEK293-hDLL3; human DLL3 expressed on HEK293 cells
T2 sequence (looked up): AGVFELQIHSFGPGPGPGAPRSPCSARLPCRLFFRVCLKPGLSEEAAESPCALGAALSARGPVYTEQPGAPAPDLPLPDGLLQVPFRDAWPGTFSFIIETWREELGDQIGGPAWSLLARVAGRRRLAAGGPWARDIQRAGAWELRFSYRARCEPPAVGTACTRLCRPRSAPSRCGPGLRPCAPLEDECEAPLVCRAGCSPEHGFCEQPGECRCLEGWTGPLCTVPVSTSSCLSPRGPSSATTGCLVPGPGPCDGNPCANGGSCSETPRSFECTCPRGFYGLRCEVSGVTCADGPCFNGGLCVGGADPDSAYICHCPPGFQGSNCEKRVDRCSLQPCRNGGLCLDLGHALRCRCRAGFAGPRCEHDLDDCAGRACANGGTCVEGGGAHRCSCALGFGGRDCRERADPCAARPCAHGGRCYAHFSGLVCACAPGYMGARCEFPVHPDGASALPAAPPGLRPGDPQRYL
Description: flow cytometry on HEK293-hDLL3 cells.

Test [3] deals with T3, human full length DLL4 expressed on CHO-K1 cells (human, UniProt Q9NR61 27-685).
T3 construct: whole, on cells; also called CHO-K1-hDLL4
T3 sequence (Q9NR61 27-685): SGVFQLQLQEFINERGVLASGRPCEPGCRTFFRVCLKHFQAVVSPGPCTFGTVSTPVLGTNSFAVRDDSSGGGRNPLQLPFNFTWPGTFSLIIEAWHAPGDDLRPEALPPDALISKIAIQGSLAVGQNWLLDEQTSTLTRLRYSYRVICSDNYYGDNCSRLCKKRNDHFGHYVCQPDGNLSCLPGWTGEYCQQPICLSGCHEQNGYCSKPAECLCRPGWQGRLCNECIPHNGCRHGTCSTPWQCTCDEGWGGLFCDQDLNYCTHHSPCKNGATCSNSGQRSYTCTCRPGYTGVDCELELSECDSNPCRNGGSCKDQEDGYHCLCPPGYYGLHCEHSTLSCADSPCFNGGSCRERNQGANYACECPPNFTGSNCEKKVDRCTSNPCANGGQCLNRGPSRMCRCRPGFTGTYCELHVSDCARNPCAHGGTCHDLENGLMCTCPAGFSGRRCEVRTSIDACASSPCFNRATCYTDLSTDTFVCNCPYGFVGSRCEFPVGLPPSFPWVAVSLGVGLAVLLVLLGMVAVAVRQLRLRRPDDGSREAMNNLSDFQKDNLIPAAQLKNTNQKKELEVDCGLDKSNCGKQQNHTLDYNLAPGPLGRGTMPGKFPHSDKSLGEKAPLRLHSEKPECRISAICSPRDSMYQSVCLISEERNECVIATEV
Description: flow cytometry on CHO-K1-hDLL4 cells.

Test [4] deals with T4, ECD of human DLL3 protein fused with his tag (Acro Bio, Cat. No. DL3-H52H4) (human, UniProt Q9NYJ7 27-492).
T4 construct: range 27-492; Bought protein; also called hDLL3-his; human DLL3-his protein; not shown: his tag
T4 sequence (looked up): T2 sequence (looked up)
Description: ELISA, hDLL3-his coated.

The target of test [5] is T5, human full length DLL1 expressed on CHO-K1 cells (human, UniProt O00548 18-723).
T5 construct: whole, on cells; also called CHO-K1-hDLL1
T5 sequence (looked up): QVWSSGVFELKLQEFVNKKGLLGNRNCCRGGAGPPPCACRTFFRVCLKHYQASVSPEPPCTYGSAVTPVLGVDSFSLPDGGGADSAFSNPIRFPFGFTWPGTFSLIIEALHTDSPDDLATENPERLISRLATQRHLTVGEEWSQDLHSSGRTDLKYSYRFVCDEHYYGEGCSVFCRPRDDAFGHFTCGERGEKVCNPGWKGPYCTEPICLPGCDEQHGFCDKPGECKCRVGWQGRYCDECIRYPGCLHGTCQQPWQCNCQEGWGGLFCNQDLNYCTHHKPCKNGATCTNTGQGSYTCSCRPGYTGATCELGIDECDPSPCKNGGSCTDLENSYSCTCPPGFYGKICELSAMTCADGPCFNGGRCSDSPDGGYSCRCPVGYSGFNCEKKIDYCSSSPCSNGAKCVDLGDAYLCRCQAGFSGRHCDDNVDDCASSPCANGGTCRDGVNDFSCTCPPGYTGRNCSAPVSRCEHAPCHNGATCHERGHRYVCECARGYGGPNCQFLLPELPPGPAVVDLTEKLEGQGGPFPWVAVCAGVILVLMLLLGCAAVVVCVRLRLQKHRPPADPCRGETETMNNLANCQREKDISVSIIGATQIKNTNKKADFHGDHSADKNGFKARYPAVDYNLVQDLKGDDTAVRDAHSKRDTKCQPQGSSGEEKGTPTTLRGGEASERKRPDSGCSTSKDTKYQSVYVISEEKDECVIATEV
Description: flow cytometry on CHO-K1-hDLL1 cells.

For test [6], the target named is T4, ECD of human DLL3 protein fused with …. Put plainly: SPR, Biacore 8K, antibody captured on Protein A chip, single dose of human DLL3-his. For orientation: In SPR one partner is held on a chip, and binding of the other changes the refractive index at the surface.
In test [7] the target is T6, human DLL1 his tag fusion protein (Sino Biological, Cat. No. 11635-H08H) (human, UniProt O00548 18-540).
T6 construct: Bought protein; also called hDLL1-his; hDLL1 protein; not shown: his tag
T6 sequence (looked up): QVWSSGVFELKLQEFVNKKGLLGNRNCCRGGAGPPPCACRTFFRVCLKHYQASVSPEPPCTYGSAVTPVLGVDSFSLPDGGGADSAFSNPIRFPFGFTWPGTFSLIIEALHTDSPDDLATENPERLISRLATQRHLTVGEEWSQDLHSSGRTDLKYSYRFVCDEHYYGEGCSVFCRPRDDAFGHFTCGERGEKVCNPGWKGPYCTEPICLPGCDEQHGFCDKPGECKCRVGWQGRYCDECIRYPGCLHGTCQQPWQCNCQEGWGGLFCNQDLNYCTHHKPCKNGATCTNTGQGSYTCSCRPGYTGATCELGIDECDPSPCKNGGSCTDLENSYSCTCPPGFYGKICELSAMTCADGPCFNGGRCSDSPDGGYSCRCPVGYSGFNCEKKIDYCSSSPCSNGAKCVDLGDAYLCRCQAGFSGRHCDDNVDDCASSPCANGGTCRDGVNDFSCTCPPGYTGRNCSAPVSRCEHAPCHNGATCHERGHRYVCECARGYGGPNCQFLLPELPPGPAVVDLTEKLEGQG
Put plainly: ELISA, hDLL1-his coated at 1 ug/mL. A general note: An ELISA detects its analyte on a solid surface through an enzyme-linked reagent.

Test [8] addresses T7, human DLL4 his tag fusion protein (Sino Biological, Cat. No. 10171-H08H) (human, UniProt Q9NR61 27-524).
T7 construct: Bought protein; also called hDLL4-his; hDLL4 protein; not shown: his tag
Put plainly: ELISA, hDLL4-his coated at 1 ug/mL.

Test [9] addresses T8, mouse DLL3 his tag protein (KACTUS, Cat. No. DLL-MM103) (mouse, UniProt O88516 33-490, limits assumed).
T8 construct: Bought protein; also called mDLL3-his; mouse DLL3 protein; not shown: his tag
T8 sequence (looked up): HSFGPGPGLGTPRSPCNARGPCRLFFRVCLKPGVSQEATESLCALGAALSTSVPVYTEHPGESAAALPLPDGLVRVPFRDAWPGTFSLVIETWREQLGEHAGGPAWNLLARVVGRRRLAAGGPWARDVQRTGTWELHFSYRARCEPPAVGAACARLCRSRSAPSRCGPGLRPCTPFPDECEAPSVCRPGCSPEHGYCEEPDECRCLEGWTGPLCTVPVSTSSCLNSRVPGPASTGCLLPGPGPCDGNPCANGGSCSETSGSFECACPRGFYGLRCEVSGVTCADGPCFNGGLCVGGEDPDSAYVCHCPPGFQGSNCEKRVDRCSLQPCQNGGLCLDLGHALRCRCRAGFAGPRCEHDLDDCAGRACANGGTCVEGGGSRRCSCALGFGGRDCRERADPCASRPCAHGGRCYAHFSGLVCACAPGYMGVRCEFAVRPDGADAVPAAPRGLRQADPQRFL
Put plainly: ELISA, mDLL3-his coated at 1 ug/mL.

T7 sequence (Q9NR61 27-524 limits assumed): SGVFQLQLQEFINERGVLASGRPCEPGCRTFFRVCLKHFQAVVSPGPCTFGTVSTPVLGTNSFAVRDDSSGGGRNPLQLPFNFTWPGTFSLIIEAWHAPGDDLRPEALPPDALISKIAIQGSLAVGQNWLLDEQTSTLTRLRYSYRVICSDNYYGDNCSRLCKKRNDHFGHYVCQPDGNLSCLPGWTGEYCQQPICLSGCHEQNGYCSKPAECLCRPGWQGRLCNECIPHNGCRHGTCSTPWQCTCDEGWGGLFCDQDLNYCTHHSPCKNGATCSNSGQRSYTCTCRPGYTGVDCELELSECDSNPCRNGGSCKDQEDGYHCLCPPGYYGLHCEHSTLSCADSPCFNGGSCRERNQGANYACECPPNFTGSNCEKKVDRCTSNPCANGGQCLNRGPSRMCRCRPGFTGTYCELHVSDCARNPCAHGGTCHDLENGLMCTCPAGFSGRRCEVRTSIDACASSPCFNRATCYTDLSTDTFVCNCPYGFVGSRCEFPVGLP

B1: 310P3C5-z14 humanized antibody (antibody, human IgG1, kappa, V domains shown)
VH: QVQLVQSGAEVKKPGASVKVSCKASGYTFTDFYMNWVKQAPGQGLEWIGDANPNNGGTTHNPRFKGRATLTVDKSASTAYMELRSLRSEDTAVYYCARGGLPGDFDYWGQGTTVTVSS
VL: DIQMTQSPSSVSASVGDRVTITCKASEDIYNRLAWYQQKPGKAPKLLIYGVTSLETGVPSRFSGSGSGTDFTLTISSLQPEDFATYYCQQYWSFPWTFGGGTKVEIKR
notes: HU-VH2 with HU-VL1-1; human IgG1
As for B1, the binding result is listed as “binds” in [1]; “binds” in [2]; “no binding” in test [3]; “binds” in [4]; “no binding” in test [5].

B2: 310P3C5-z15 humanized antibody (antibody, human IgG1, kappa, V domains shown)
VH: B1 VH
VL: B1 VL with V11L, Y49S, L73F, F83I
notes: human IgG1
As for B2, the binding result in test [1] was “binds”; in [2], “binds”; in test [3], “no binding”; in [4], “binds”; in [5] it was “no binding”.

B3: 129H2B9-hIgG1 chimeric antibody (antibody, V domains shown)
VH: EVNLEESGGGLVQPGGSMKLSCVVSGFTFSNYWMSWVRQSPEKGLEWVAEIRLKSDNYATHYAESVKGKFTISRDDSKSRLYLQMNSLRPEDTGIYYCTSNRFAYWGQGTLVTVSA
VL: NIVMTQSPKSVSMSVGERVTLSCKASENVGTYVYWYQQKPEQSPKMMIYGASNRYTGVPDRFTGSGSATDFTLTIRSVQAEDLADYHCGQSYSYPFTFGSGTKLEIKR
As for B3, the binding result is recorded as “binds” in test [6]; “no binding (tested: up to 100 nM)” in test [7]; “binds” in test [2]; “no binding (tested: up to 100 nM)” in test [8]; “binds” in [9]; “no binding (tested: highest dose level 100 nM)” in test [5].

B4: 148C3A7-hIgG1 chimeric antibody (antibody, V domains shown)
VH: EVQLQQSGPELIKPGTSVKMSCKASGYTFTTYLMHWVKQKPGQGLEWIGYINPYNDVTEYHEKFKDKATLTSDKSSSTAYMELSSLTSEDSAVYYCARLGGYGPGWYLDVWGAGTTVTVSS
VL: DIQMTQSPASLSASVGETVTITCRASGSIHNYLAWYLHKQGKSPQLLVYNAKTLADGVPSRFSGSGSGTQYSLKINSLQPEDFGSYYCHHFWSTPWTFGGGTKLEIKR
In the case of B4, the binding result in test [6] was “binds”; in [7] it was “no binding (tested: up to 100 nM)”; in test [1], “binds”; in test [2], “binds”; in [8], “no binding (tested: up to 100 nM)”; in [9] it was “binds”. In addition, the binding result in [5] is listed as “no binding (tested: highest dose level 100 nM)”.

B5: 362H3D3-hIgG1 chimeric antibody (antibody, V domains shown)
VH: EVQLQQSGPELLKPGASVKISCKASGYTFTDYTMHWVKQSHGRSLEWIGGIHPNYGGTSYNEKFKDKATLTVDKSSSTAYMEFRSLTSEDSAVYYCARWGYYGGSYWYFDVWGTGTTVTVSS
VL: DIQMTQSPASLSVSVGETVTITCRASENIYSNLAWYQQKQGKSPQLLVYAATNLADGVPSRFSGSGSGTQYSLKINSLQSEDFGSYYCQHFWGTPYTFGGGTKLEIKR
In the case of B5, the binding result in test [6], in [7], in test [1], in [2], in test [8] and in test [9] was “binds” each time. The binding result in test [5] is on record as “binds”.

B6: 310P3C5-hIgG1 chimeric antibody (antibody, V domains shown)
VH: EVQLQQSGPELVKPGASVKISCKASGYTFTDFYMNWVKQTHGKSLEWIGDANPNNGGTTHNPRFKGQATLTVDKSSNTAYMELRSLTSEDSAVYYCARGGLPGDFDYWGQGTTLTVSS
VL: DIQMTQSSSSFSVSLGDRVTITCKASEDIYNRLAWYQQKPGNAPRLLISGVTSLETGVPSRFSGSGSGKDYTLSITSLQTEDVATYYCQQYWSFPWTFGGGTKLEIKR
With B6, the binding result in test [6] was “binds”; in test [7], “no binding (tested: up to 100 nM)”; in [1] it was “binds”; in [2], “binds”; in test [8] it was “no binding (tested: up to 100 nM)”; in [9] it was “binds”. In addition, in [5], the binding result is recorded as “no binding (tested: highest dose level 100 nM)”.

The values are drawn from EP4803151A2 (Lepu Biopharma Co., Ltd., dated 2026).
